Assay results as given in PMC8336837, “Structure of the human C9orf72-SMCR8 complex reveals a multivalent protein interaction architecture” (PLoS Biology, 2021).
One block for each binder: values may come before it.

Assays:
[1] = molecular target: T1, C9orf72 (full-length) (human, UniProt Q96LT7 1-481); test: SEC; limited proteolysis: full-length C9orf72-SMCR8-WDR41 complex (0.93 mg) with trypsin (4.6 ug) 20 minutes on ice, then size-exclusion chromatography; bands of the peak fraction identified by tandem mass spectrometry; conditions: both partners purified
T1 construct: C9orf72, human, the longer isoform (481 AA); open reading frame commercially synthesized with codon optimization; also called Fl-C9orf72; C9orf72 Fl; source: Sf-9 insect cells, co-expressed with SMCR8 or SMCR8N-C, purified (Strep-Tactin, size-exclusion chromatography)
T1 sequence (looked up): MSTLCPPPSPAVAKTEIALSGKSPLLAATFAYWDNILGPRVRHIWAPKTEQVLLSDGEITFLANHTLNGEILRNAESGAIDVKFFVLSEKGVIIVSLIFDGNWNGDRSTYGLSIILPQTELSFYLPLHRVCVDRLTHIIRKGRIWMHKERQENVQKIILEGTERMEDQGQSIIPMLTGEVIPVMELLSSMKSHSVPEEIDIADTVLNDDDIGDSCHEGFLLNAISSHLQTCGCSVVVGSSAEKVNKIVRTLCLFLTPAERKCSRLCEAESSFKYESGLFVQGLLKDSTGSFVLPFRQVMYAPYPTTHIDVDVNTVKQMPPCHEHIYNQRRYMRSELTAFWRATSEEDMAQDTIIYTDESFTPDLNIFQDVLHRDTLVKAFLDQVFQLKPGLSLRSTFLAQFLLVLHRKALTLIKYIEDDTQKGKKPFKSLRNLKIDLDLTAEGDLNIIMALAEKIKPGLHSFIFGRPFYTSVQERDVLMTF

[2] = molecular target: T2, full-length C9orf72-SMCR8 complex (GST-tagged) (human, UniProt Q96LT7 1-481; Q8TEV9 1-937); test: SEC; reconstitution of the trimeric complex from purified C9orf72-SMCR8 and WDR41; Superose 6 10/300 GL, 20 mM HEPES pH 8.0, 150 mM NaCl, 2 mM DTT, 3% glycerol; conditions: both partners purified
T2 construct: C9orf72, human, the longer isoform (481 AA); codon-optimised synthetic open reading frame; SMCR8, human, from a human cDNA library; GST on C9orf72 is stated for the GST pull-down; also called GST-tagged C9orf72-SMCR8; source: Sf-9 insect cells, the two proteins co-expressed, purified (Strep-Tactin, size-exclusion chromatography); not shown: GST, N-terminal, kept
T2 sequence (looked up) 1: T1 sequence (looked up)
T2 sequence (looked up) 2: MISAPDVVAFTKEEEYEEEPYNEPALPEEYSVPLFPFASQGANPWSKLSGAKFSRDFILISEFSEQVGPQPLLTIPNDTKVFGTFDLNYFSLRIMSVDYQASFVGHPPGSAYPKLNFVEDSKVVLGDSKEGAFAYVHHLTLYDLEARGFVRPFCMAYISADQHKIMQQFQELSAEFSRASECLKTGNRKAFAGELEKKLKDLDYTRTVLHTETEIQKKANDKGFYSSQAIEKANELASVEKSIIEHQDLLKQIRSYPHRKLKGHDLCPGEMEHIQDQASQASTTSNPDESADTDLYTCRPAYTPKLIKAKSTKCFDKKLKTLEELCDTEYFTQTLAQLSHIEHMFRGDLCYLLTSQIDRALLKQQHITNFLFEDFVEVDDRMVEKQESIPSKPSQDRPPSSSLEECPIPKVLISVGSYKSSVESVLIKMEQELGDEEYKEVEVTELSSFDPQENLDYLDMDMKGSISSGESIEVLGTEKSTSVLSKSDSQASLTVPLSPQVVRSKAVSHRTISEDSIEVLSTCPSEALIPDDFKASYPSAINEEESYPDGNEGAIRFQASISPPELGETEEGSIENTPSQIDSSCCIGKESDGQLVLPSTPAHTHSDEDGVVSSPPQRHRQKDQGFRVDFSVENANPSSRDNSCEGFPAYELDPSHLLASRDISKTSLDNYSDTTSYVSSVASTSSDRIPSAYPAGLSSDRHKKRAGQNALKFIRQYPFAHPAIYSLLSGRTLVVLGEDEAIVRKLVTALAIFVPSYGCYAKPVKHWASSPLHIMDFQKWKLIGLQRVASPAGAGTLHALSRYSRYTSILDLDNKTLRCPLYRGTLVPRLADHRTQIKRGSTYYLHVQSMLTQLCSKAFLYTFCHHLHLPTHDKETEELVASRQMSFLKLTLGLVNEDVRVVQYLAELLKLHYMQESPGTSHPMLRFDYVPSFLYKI

[3] = molecular target: T3, SMCR8 (full-length) (human, UniProt Q8TEV9 1-937); test: cross-linking; DSSO (0.5 to 10 mM, 1 hour at room temperature) on C9orf72-SMCR8 complex mixed with WDR41 in equimolar ratio (200 pmol) in 20 mM HEPES pH 8.0, 150 mM NaCl, 2 mM DTT, 3% glycerol; mass spectrometry after digestion; conditions: both partners purified
T3 construct: SMCR8, human, open reading frame amplified from a human cDNA library; residues 1-937; also called SMCR8 Fl; source: Sf-9 insect cells, co-expressed with C9orf72, purified (Strep-Tactin, size-exclusion chromatography)
T3 sequence (looked up): T2 sequence (looked up) 2

[4] = molecular target: T4, Strep-SMCR8ΔCC (SMCR8 mutant lacking its coiled-coil region) (human, UniProt Q8TEV9 1-937, missing residues 181 to 250); test: affinity purification with mass spectrometry; Strep-SMCR8 (WT or ΔCC) and C9orf72 transfected into HEK293T; cells fed or starved 90 minutes (amino acid- and glucose-free media) before lysis; magnetic Strep-Tactin beads; label-free quantification (LFQ), triplicates; conditions: partners not purified
T4 construct: SMCR8, human, lacking the coiled-coil region (missing residues 181 to 250); Cloned into pOPINE-3C-eGFP; source: HEK293T, transfected together with C9orf72, in lysate; not shown: twin-strep, N-terminal, kept
T4 sequence (looked up): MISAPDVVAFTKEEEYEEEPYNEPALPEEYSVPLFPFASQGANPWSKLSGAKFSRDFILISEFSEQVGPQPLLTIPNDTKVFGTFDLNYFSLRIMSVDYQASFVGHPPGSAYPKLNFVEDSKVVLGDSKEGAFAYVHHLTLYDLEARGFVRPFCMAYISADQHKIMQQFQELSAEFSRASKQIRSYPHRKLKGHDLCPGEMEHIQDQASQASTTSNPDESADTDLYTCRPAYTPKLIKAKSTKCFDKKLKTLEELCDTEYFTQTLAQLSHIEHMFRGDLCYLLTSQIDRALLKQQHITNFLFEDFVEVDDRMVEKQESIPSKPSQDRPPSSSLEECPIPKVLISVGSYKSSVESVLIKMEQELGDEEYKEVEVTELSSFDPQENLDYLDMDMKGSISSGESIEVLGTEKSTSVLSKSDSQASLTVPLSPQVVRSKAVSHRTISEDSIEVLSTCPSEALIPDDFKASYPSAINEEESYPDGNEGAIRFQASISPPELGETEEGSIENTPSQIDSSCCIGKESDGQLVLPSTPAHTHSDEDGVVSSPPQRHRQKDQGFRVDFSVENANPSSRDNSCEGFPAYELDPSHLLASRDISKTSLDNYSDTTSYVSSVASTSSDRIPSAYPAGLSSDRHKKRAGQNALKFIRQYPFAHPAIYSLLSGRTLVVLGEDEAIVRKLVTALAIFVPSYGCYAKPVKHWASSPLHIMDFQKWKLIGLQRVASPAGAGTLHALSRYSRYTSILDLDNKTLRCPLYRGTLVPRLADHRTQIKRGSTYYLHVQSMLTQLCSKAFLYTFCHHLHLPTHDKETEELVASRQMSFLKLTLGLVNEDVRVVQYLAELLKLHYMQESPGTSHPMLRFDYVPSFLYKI

B1: carboxyl-terminal domain of SMCR8 (SMCR8C), tryptic fragment (domain or fragment, human, UniProt Q8TEV9 620-937, looked up)
chain: RQKDQGFRVDFSVENANPSSRDNSCEGFPAYELDPSHLLASRDISKTSLDNYSDTTSYVSSVASTSSDRIPSAYPAGLSSDRHKKRAGQNALKFIRQYPFAHPAIYSLLSGRTLVVLGEDEAIVRKLVTALAIFVPSYGCYAKPVKHWASSPLHIMDFQKWKLIGLQRVASPAGAGTLHALSRYSRYTSILDLDNKTLRCPLYRGTLVPRLADHRTQIKRGSTYYLHVQSMLTQLCSKAFLYTFCHHLHLPTHDKETEELVASRQMSFLKLTLGLVNEDVRVVQYLAELLKLHYMQESPGTSHPMLRFDYVPSFLYKI
notes: SMCR8, human, residues 620 to 937, product of limited proteolysis identified by mass spectrometry; source: Sf-9 insect cells; purified full-length C9orf72-SMCR8-WDR41 complex cut with trypsin
binding result [1]: binds

B4: WDR41 (in HEK293T cells) (natural protein, human (endogenous in HEK293T), UniProt Q9HAD4 1-459, looked up)
chain: MLRWLIGGGREPQGLAEKSPLQTIGEEQTQNPYTELLVLKAHHDIVRFLVQLDDYRFASAGDDGIVVVWNAQTGEKLLELNGHTQKITAIITFPSLESCEEKNQLILTASADRTVIVWDGDTTRQVQRISCFQSTVKCLTVLQRLDVWLSGGNDLCVWNRKLDLLCKTSHLSDTGISALVEIPKNCVVAAVGKELIIFRLVAPTEGSLEWDILEVKRLLDHQDNILSLINVNDLSFVTGSHVGELIIWDALDWTMQAYERNFWDPSPQLDTQQEIKLCQKSNDISIHHFTCDEENVFAAVGRGLYVYSLQMKRVIACQKTAHDSNVLHVARLPNRQLISCSEDGSVRIWELREKQQLAAEPVPTGFFNMWGFGRVSKQASQPVKKQQENATSCSLELIGDLIGHSSSVEMFLYFEDHGLVTCSADHLIILWKNGERESGLRSLRLFQKLEENGDLYLAV
notes: WDR41, found by mass spectrometry in Strep-Tactin purifications from HEK293T cells (only SMCR8 and C9orf72 plasmids were transfected); source: endogenous, HEK293T lysate
fold increase of WDR41 (LFQ) against SMCR8 WT fed, fed cells [4]: ~4.5 fold
fold increase of WDR41 (LFQ) against SMCR8 WT fed, starved cells [4]: ~5.5 fold

Next, values leading:

binding result [1]: binds
B2: N-terminal domain of SMCR8 (SMCR8N), tryptic fragment (domain or fragment, human, UniProt Q8TEV9 1-439, looked up)
chain: MISAPDVVAFTKEEEYEEEPYNEPALPEEYSVPLFPFASQGANPWSKLSGAKFSRDFILISEFSEQVGPQPLLTIPNDTKVFGTFDLNYFSLRIMSVDYQASFVGHPPGSAYPKLNFVEDSKVVLGDSKEGAFAYVHHLTLYDLEARGFVRPFCMAYISADQHKIMQQFQELSAEFSRASECLKTGNRKAFAGELEKKLKDLDYTRTVLHTETEIQKKANDKGFYSSQAIEKANELASVEKSIIEHQDLLKQIRSYPHRKLKGHDLCPGEMEHIQDQASQASTTSNPDESADTDLYTCRPAYTPKLIKAKSTKCFDKKLKTLEELCDTEYFTQTLAQLSHIEHMFRGDLCYLLTSQIDRALLKQQHITNFLFEDFVEVDDRMVEKQESIPSKPSQDRPPSSSLEECPIPKVLISVGSYKSSVESVLIKMEQELGDEEYK
notes: SMCR8, human, residues 1 to 439, product of limited proteolysis identified by mass spectrometry; source: Sf-9 insect cells; purified full-length C9orf72-SMCR8-WDR41 complex cut with trypsin

binding result [2]: binds
binding result [3]: binds
B3: WDR41 (full-length) (natural protein, human, UniProt Q9HAD4 1-459, looked up)
chain: B4 chain
notes: WDR41, human, open reading frame amplified from a human cDNA library; also called WDR41 Fl; source: Sf-9 insect cells, expressed individually, purified (Strep-Tactin, size-exclusion chromatography)
